Assays:
[1] = molecular target: T1, recombinant human PD-L1 extracellular domain (residues 19–239), His-tagged (human, UniProt Q9NZQ7 19-239); assay: ELISA; 100 ng/well rhPD-L1 coated directly on the plate, casein block; dilution series of ATTO488-WL12 in TBS with 0.1% Tween-20, 1 h RT; read by ATTO488 fluorescence intensity; EC50 by 4-parameter logistic fit; conditions: both partners purified
T1 construct: programmed death-ligand 1 (PD-L1/CD274/B7-H1), human, extracellular domain residues 19-239, subcloned from pCMV3-full-length human PD-L1 into pTT28; probably removed on secretion (surmise); also called rhPD-L1; recombinant extracellular hPD-L1; source: HEK293-6E, transiently transfected, secreted, purified (Ni-NTA Agarose, dialysis); not shown: His8, C-terminal, kept
T1 sequence (Q9NZQ7 19-239): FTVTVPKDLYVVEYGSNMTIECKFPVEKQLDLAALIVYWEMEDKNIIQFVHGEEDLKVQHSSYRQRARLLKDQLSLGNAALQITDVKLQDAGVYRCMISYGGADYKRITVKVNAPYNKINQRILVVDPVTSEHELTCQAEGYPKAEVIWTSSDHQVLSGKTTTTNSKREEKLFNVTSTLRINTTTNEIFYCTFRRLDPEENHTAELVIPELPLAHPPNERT

[2] = molecular target: T2, human PD-L1, membrane-bound, on hPD-L1-transfected CHO cells (human, UniProt Q9NZQ7 19-290); assay: flow cytometry on cells; dilution series on hPD-L1-transfected and wild-type CHO cells in PBS, 30 min at 4 °C; ATTO488 fluorescence; EC50 from MFI by 4-parameter logistic fit; conditions: one partner purified
T2 construct: The catalogue suffix -CH may mean a C-terminal His tag (surmise); also called CHO PD-L1; source: CHO cells, stably transfected (pCMV3-full-length human PD-L1, hygromycin selection), on cells
T2 sequence (Q9NZQ7 19-290): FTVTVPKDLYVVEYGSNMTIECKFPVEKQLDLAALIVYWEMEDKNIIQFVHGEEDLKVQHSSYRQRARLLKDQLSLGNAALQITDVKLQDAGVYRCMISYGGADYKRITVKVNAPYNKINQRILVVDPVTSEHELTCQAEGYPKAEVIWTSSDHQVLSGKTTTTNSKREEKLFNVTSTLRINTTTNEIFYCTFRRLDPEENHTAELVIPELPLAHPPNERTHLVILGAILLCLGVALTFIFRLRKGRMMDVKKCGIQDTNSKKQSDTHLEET

[3] = molecular target: T1, recombinant human PD-L1 extracellular …; assay: ELISA; 100 ng/well rhPD-L1 coated directly on the plate (TBS, 1 h RT), casein block; dilution series of biotinylated binder in TBS with 0.1% Tween-20, 1 h RT; neutravidin-HRP, chemiluminescence; EC50 by 4-parameter logistic fit; conditions: both partners purified

Row | EC50 [1] | EC50 [2] | EC50 [3] | Binder
1 | 5.3 nM | 270 nM | – | YANPHLPWSWXXXCG (ClAc on the N-terminus (peptide cyclised, macrocyclic); MeAla at 2; Hyp at 7; Trp(Me) at 10; MeNle at 11 and 12; Orn at 13; C-terminal amide; ATTO488 fluorophore (site not told in the text shown)) [ATTO488-WL12]
2 | – | 6.6 nM | 0.29 nM | YANPHLPWSWXXXCG (other, ClAc on the N-terminus (peptide cyclised, macrocyclic); MeAla at 2; Hyp at 7; Trp(Me) at 10; MeNle at 11 and 12; Orn at 13; C-terminal amide; amino group of the peptide bound to the HPMA copolymer) [iBody 1 (HPMA copolymer carrying WL12, ATTO488 and biotin)]
